Data on 23 molecules can be found in patent US10494415B2, “Insulin-like growth factor 2 (IGF2) binding agents” (Cancer Research Technology Limited, priority 2015, dated 2019).

The test deals with IGF2 (Homo sapiens, UniProt P01344). Description: SPR (Biacore T200) of recombinant IGF2R domain 11 mutants on immobilised biotinylated IGF2. The format is binding. Set-up: purchased GroPep. The source says:
Surface plasmon resonance (SPR) binding analysis of recombinant M6P/IGF2R domain 11 mutants interaction with IGF2. Kon indicates association (on) rate; koff, dissociation (off) rate; RU, response units. Binding to IGF2 assessed with BIAcore T200 using purified biotinylated IGF2 and IGF1 on a streptavidin biosensor chip. Recombinant proteins were expressed either in E. coli and/or P. pastoris. All the mutants in the FG and CD loops are on the domain 11^AB5 background for the AB loop unless otherwise stated. All experiments were carried out at 25° C. in HBS-EP buffer (pH 7.4), were repeated 2-5 times on two independent BIAcore chips. nd=not determined. Data for KD expressed as mean of each experiment, and means of kon and koff are shown.
Measurements were carried out at 25° C. in HBS-EP buffer (pH 7.4) (nd=not determined, np=no protein). Data for KD expressed as mean of each experiment, and means of kon and koff are shown.
Measurements were carried out at 25° C. in MES-EP buffer, 20 mM MES pH 6.5, 150 mM NaCl, 3 mM EDTA, and 0.005% (v/v) surfactant P20). Data for KD expressed as mean of each experiment, and means of kon and koff are shown.
Final kinetic analysis of mutants by SPR was conducted using a Biacore T200 biosensor at 25° C. in either HBS-EP (10 mM HEPES pH 7.4, 150 mM NaCl, 3 mM EDTA, and 0.005% (v/v) surfactant P20) or MES-EP (20 mM MES pH 6.5, 150 mM NaCl, 3 mM EDTA, and 0.005% (v/v) surfactant P20) at a flow-rate of 40 μL min^−1. […] For the analysis of the Fc-domain 11^AB5 interaction, approximately 50 RU of a biotinylated IGF2:biotinylated ubiquitin mixture (1:8 proportion) was immobilized on the CM5-streptavidin chip. This interaction was also analysed by immobilizing the Fc-domain 11^AB5 and Fc-domain 11^AB5-RHH (or Fc-domain 11^I1572A as control) by Human Antibody Capture (monoclonal mouse anti-human IgG antibody immobilised on a CM5 chip by amine coupling, GE Healthcare) with and without human IgG1 Fc fragment (Bethyl Laboratories, UK) in the control flow cell. Increasing concentrations of IGF2^1-67, proIGF2^1-104, proIGF2^1-156 and IGF1 ranging from 0.125 to 32 nM were injected. T200 BiaEvaluation software (GE Healthcare) was used to fit the resulting curves according to a 1:1 binding model. Steady state affinities were determined using the kinetic data, taking the response average at 5 seconds before injection end and for 5 seconds average. Thermodynamic data was performed across the temperature range of 10° C. to 30° C., van't Hoff and Erying plots generated and ΔH, −TΔS and ΔG values determined as previously described.
(Surface plasmon resonance follows binding to a sensor surface in real time, without labels.)

Residue numbers refer to the chain shown, from its start. Numbers in names are those of the source.

IGF2, sequence (P01344 25-91): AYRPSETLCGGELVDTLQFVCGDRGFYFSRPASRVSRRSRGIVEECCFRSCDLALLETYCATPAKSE

B1: Q1632E: domain 11 HI loop mutant Q1632E, probably AB5 background (protein)
chain: MKSNEHDDCQVTNPSTGHLFDLSSLSGRAGFTAAYAKGWGVYMSICGENENCPPGVGACFGQTRISVGKANKRLRYVDQVLQLVYKDGSPCPSKSGLSYKSVISFVCRPEAGPTNRPMLISLDKETCTLFFSWHTPLACEQATECSV
For B1, for the setting “Table 1, 25° C., HBS-EP pH 7.4”, the Kinetics koff was 0.0202 s⁻¹ and the Kinetics kon stood at 520000 M⁻¹ s⁻¹.

B2: WT + 23D (HI-HFQS): wild-type domain 11 with HI loop 1630-1633 HFQS (clone 23D) (protein)
chain: B1 chain with A36S, K37E, G38K, W39G, G40L, D123H, K124F, E125Q, T126S
For the molecule B2, under “Table 2”, the Kinetics koff is 0.065 s⁻¹ and the Kinetics kon amounted to 250000 M⁻¹ s⁻¹.

B3: AB5 + 51F (HI-NRQS): domain 11 AB5 with HI loop NRQS (clone 51F) (protein)
chain: B1 chain with D123N, K124R, E125Q, T126S
For the molecule B3, under “Table 2”, the Kinetics koff amounted to 0.10 s⁻¹ and the Kinetics kon was found to be 7.4e+06 M⁻¹ s⁻¹.

B4: AB5 P1597A: domain 11 AB5 + P1597A (protein)
chain: B1 chain with P90A, E125Q
On to B4, for which, where the note is “Table 3, 25° C., HBS-EP pH 7.4”, the Kinetics koff stood at 0.0174 s⁻¹ and the Kinetics kon is 1.9e+06 M⁻¹ s⁻¹.

B5: WT + 26C (HI-DMQT): wild-type domain 11 with HI loop DMQT (clone 26C) (protein)
chain: B1 chain with A36S, K37E, G38K, W39G, G40L, K124M, E125Q
On to B5, for which, for the setting “Table 2”, the Kinetics koff turned out to be 0.24 s⁻¹ and the Kinetics kon worked out at 1.89e+06 M⁻¹ s⁻¹.

B6: AB3 P1597H: domain 11 AB3 + FG loop P1597H (protein)
chain: B1 chain with A36S, G38S, W39G, G40V, P90H, E125Q
For B6, for the setting “Table 2”, the Kinetics koff worked out at 0.013 s⁻¹ and the Kinetics kon came to 1.06e+07 M⁻¹ s⁻¹. For the setting “Table 3, 25° C., HBS-EP pH 7.4”, the Kinetics koff was 0.013 s⁻¹ and the Kinetics kon is 1.06e+07 M⁻¹ s⁻¹.

B7: AB3 P1597K: domain 11 AB3 + FG loop P1597K (protein)
chain: B1 chain with A36S, G38S, W39G, G40V, P90K, E125Q
For the molecule B7, where the note is “Table 3, 25° C., HBS-EP pH 7.4”, the Kinetics koff was 0.0287 s⁻¹ and the Kinetics kon was 1.05e+07 M⁻¹ s⁻¹.

B8: AB3 P1597H HI^23D: domain 11 AB3 + P1597H + HI loop of clone 23D (HFQS) (protein)
chain: B1 chain with A36S, G38S, W39G, G40V, P90H, D123H, K124F, E125Q, T126S
With B8, the Kinetics koff (Table 3, 25° C., HBS-EP pH 7.4) amounted to 0.012 s⁻¹.

B9: WT + 27G (HI-NMAL): wild-type domain 11 with HI loop NMAL (clone 27G) (protein)
chain: B1 chain with A36S, K37E, G38K, W39G, G40L, D123N, K124M, E125A, T126L
Take B9: under “Table 2”, the Kinetics koff is 0.25 s⁻¹ and the Kinetics kon came out at 2e+06 M⁻¹ s⁻¹.

B10: AB3 Q1569R: domain 11 AB3 + CD loop Q1569R (protein)
chain: B1 chain with A36S, G38S, W39G, G40V, Q62R, E125Q
B10: for the setting “Table 2”, the Kinetics koff was found to be 0.031 s⁻¹ and the Kinetics kon came out at 1.36e+07 M⁻¹ s⁻¹. Further, under “Table 3, 25° C., HBS-EP pH 7.4”, the Kinetics koff was 0.031 s⁻¹ and the Kinetics kon amounted to 1.36e+07 M⁻¹ s⁻¹.

B11: AB3 Q1569R P1597K: domain 11 AB3 + Q1569R, P1597K (protein)
chain: B1 chain with A36S, G38S, W39G, G40V, Q62R, P90K, E125Q
With B11, for the setting “Table 3, 25° C., HBS-EP pH 7.4”, the Kinetics koff is 0.0241 s⁻¹ and the Kinetics kon was determined as 2e+07 M⁻¹ s⁻¹.

B12: AB3 P1597H K1631W: domain 11 AB3 + P1597H, K1631W (protein)
chain: B1 chain with A36S, G38S, W39G, G40V, P90H, K124W, E125Q
In the case of B12, where the note is “Table 3, 25° C., HBS-EP pH 7.4”, the Kinetics koff was 0.3478 s⁻¹ and the Kinetics kon was 1.97e+07 M⁻¹ s⁻¹.

B13: Q1632L: domain 11 HI loop mutant Q1632L, probably AB5 background (protein)
chain: B1 chain with E125L
With B13, where the note is “Table 1, 25° C., HBS-EP pH 7.4”, the Kinetics koff was found to be 0.0175 s⁻¹ and the Kinetics kon worked out at 3.18e+06 M⁻¹ s⁻¹.

B14: AB3 Q1569R P1597H S1602H: domain 11 AB3 + Q1569R, P1597H, S1602H (protein)
chain: B1 chain with A36S, G38S, W39G, G40V, Q62R, P90H, S95H, E125Q
In the case of B14, the Kinetics koff reads like this: (Table 3, 25° C., HBS-EP pH 7.4) 0.010 s⁻¹; (Table 4, MES-EP pH 6.5) 0.0064 s⁻¹. Besides, the Kinetics kon reads like this: (Table 3, 25° C., HBS-EP pH 7.4) 1.41e+07 M⁻¹ s⁻¹; (Table 4, MES-EP pH 6.5) 1.61e+07 M⁻¹ s⁻¹.

B15: W1546F: domain 11 AB5 with W1546F in the AB loop (protein)
chain: B1 chain with W39F, E125Q
For B15, under “Table 1, 25° C., HBS-EP pH 7.4”, the Kinetics koff amounted to 0.0180 s⁻¹ and the Kinetics kon is 4.5e+06 M⁻¹ s⁻¹.

B16: AB3 P1597K S1602H: domain 11 AB3 + P1597K, S1602H (protein)
chain: B1 chain with A36S, G38S, W39G, G40V, P90K, S95H, E125Q
Turning to B16, where the note is “Table 3, 25° C., HBS-EP pH 7.4”, the Kinetics koff came out at 0.0102 s⁻¹ and the Kinetics kon was determined as 2.74e+06 M⁻¹ s⁻¹.

B17: AB3 Q1569R P1597H: domain 11 AB3 + Q1569R, P1597H (protein)
chain: B1 chain with A36S, G38S, W39G, G40V, Q62R, P90H, E125Q
On to B17, for which the Kinetics koff is, setting by setting: (Table 3, 25° C., HBS-EP pH 7.4) 0.0153 s⁻¹; (Table 4, MES-EP pH 6.5) 0.0091 s⁻¹. For the same molecule, the Kinetics kon reads like this: (Table 3, 25° C., HBS-EP pH 7.4) 1.89e+07 M⁻¹ s⁻¹; (Table 4, MES-EP pH 6.5) 1.99e+07 M⁻¹ s⁻¹.

B18: AB5 Q1569R: domain 11 AB5 + CD loop Q1569R (protein)
chain: B1 chain with Q62R, E125Q
B18: under “Table 3, 25° C., HBS-EP pH 7.4”, the Kinetics koff stood at 0.0175 s⁻¹ and the Kinetics kon came out at 8.04e+06 M⁻¹ s⁻¹.

B19: AB3 Q1569R P1597K S1602H: domain 11 AB3 + Q1569R, P1597K, S1602H (protein)
chain: B1 chain with A36S, G38S, W39G, G40V, Q62R, P90K, S95H, E125Q
Consider B19, for which, for the setting “Table 3, 25° C., HBS-EP pH 7.4”, the Kinetics koff came out at 0.016 s⁻¹ and the Kinetics kon is 2.01e+07 M⁻¹ s⁻¹.

B20: AB3 Q1569R P1597K S1602H G1603K: domain 11 AB3 + Q1569R, P1597K, S1602H, G1603K (protein)
chain: B1 chain with A36S, G38S, W39G, G40V, Q62R, P90K, S95H, G96K, E125Q
Turning to B20, where the note is “Table 3, 25° C., HBS-EP pH 7.4”, the Kinetics koff is 0.0171 s⁻¹ and the Kinetics kon amounted to 2.08e+07 M⁻¹ s⁻¹.

B21: WT + 312G (HI-VKLM): wild-type domain 11 with HI loop VKLM (clone 312G) (protein)
chain: B1 chain with A36S, K37E, G38K, W39G, G40L, D123V, E125L, T126M
Regarding B21, for the setting “Table 2”, the Kinetics koff is 0.15 s⁻¹ and the Kinetics kon was determined as 1.07e+06 M⁻¹ s⁻¹.

B22: AB5 P1597H: domain 11 AB5 + P1597H (protein)
chain: B1 chain with P90H, E125Q
As for B22, where the note is “Table 3, 25° C., HBS-EP pH 7.4”, the Kinetics koff is 0.0070 s⁻¹ and the Kinetics kon was found to be 3.68e+06 M⁻¹ s⁻¹.

B23: T1633A: domain 11 HI loop mutant T1633A, probably AB5 background (protein)
chain: B1 chain with E125Q, T126A
As for B23, for the setting “Table 1, 25° C., HBS-EP pH 7.4”, the Kinetics koff is 0.0196 s⁻¹ and the Kinetics kon amounted to 800000 M⁻¹ s⁻¹.
